According to IntAct's records for PubMed 31515488:

B1: Four and a half LIM domains protein 2 (Homo sapiens), Q14192 (parent)
chain: MTERFDCHHCNESLFGKKYILREESPYCVVCFETLFANTCEECGKPIGCDCKDLSYKDRHWHEACFHCSQCRNSLVDKPFAAKEDQLLCTDCYSNEYSSKCQECKKTIMPGTRKMEYKGSSWHETCFICHRCQQPIGTKSFIPKDNQNFCVPCYEKQHAMQCVQCKKPITTGGVTYREQPWHKECFVCTACRKQLSGQRFTARDDFAYCLNCFCDLYAKKCAGCTNPISGLGGTKYISFEERQWHNDCFNCKKCSLSLVGRGFLTERDDILCPDCGKDI
partner: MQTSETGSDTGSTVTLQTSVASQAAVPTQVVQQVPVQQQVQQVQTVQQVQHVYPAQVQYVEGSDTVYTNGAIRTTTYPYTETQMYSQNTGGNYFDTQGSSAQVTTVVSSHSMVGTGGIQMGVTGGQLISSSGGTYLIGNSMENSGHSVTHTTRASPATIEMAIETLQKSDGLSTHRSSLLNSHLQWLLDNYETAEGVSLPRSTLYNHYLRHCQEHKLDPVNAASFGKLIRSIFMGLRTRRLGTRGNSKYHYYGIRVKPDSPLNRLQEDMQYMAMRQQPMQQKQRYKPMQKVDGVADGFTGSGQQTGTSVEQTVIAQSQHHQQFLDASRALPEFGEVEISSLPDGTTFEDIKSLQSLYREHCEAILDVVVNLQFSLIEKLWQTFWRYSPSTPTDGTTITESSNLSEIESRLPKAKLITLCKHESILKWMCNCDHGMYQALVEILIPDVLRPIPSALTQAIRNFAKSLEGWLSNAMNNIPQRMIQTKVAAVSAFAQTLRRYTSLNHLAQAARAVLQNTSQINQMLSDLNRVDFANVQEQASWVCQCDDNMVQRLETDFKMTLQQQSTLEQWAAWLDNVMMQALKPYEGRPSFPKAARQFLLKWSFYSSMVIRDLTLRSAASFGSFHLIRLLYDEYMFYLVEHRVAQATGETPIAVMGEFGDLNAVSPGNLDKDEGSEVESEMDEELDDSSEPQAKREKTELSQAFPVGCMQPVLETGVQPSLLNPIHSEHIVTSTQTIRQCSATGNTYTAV
B2: Cyclin-dependent kinase 4 inhibitor D (Homo sapiens), P55273 (parent)
chain: MLLEEVRAGDRLSGAAARGDVQEVRRLLHRELVHPDALNRFGKTALQVMMFGSTAIALELLKQGASPNVQDTSGTSPVHDAARTGFLDTLKVLVEHGADVNVPDGTGALPIHLAVQEGHTAVVSFLAAESDLHRRDARGLTPLELALQRGAQDLVDILQGHMVAPL
partner: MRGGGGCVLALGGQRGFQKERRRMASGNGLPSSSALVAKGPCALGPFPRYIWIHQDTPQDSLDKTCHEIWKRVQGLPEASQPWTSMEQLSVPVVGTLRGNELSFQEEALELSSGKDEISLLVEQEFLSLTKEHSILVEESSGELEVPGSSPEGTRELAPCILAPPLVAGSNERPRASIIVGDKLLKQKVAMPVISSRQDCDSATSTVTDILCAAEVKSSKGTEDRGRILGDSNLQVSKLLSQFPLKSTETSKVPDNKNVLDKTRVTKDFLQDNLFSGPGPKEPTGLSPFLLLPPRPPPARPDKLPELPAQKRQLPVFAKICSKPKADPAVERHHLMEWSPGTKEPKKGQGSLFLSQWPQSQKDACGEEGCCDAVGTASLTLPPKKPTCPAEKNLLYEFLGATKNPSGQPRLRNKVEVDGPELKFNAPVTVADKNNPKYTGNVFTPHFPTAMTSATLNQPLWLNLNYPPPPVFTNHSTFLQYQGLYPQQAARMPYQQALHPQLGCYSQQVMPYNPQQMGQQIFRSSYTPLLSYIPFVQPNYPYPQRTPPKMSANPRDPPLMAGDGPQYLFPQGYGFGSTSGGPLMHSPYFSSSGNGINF
B3: Ubiquitin-like protein 4B (Homo sapiens), Q8N7F7 (parent)
chain: MFLTVKLLLGQRCSLKVSGQESVATLKRLVSRRLKVPEEQQHLLFRGQLLEDDKHLSDYCIGPNASINVIMQPLEKMALKEAHQPQTQPLWHQLGLVLAKHFEPQDAKAVLQLLRQEHEERLQKISLEHLEQLAQYLLAEEPHVEPAGERELEAKARPQSSCDMEEKEEAAADQ
partner: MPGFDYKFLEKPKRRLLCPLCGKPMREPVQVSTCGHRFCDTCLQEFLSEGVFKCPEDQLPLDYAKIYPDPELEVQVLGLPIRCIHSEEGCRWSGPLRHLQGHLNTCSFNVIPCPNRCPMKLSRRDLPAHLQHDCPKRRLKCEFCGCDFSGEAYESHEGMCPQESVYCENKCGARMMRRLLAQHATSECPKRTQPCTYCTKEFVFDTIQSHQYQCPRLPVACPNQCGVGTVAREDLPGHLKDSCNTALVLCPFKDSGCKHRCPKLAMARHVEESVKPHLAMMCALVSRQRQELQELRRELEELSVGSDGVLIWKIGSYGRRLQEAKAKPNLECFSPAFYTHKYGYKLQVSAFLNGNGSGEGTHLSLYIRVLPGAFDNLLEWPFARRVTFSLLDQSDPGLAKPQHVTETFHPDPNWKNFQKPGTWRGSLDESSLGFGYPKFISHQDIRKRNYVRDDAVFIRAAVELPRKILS
B4: Sulfotransferase 1A1 (Homo sapiens), P50225 (parent)
chain: MELIQDTSRPPLEYVKGVPLIKYFAEALGPLQSFQARPDDLLISTYPKSGTTWVSQILDMIYQGGDLEKCHRAPIFMRVPFLEFKAPGIPSGMETLKDTPAPRLLKTHLPLALLPQTLLDQKVKVVYVARNAKDVAVSYYHFYHMAKVHPEPGTWDSFLEKFMVGEVSYGSWYQHVQEWWELSRTHPVLYLFYEDMKENPKREIQKILEFVGRSLPEETVDFVVQHTSFKEMKKNPMTNYTTVPQEFMDHSISPFMRKGMAGDWKTTFTVAQNERFDADYAEKMAGCSLSFRSEL
partner: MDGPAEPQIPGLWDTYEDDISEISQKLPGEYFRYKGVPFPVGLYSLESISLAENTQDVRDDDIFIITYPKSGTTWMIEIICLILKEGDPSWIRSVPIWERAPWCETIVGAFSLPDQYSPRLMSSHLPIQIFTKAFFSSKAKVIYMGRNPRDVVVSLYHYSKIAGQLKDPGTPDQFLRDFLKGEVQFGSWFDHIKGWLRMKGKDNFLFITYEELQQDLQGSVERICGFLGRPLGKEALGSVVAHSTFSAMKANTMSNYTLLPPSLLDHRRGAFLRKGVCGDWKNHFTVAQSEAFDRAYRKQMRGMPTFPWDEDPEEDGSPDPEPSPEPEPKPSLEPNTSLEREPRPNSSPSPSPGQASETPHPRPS
B5: LHFPL tetraspan subfamily member 5 protein (Homo sapiens), Q8TAF8 (parent)
chain: MVKLLPAQEAAKIYHTNYVRNSRAVGVMWGTLTICFSVLVMALFIQPYWIGDSVNTPQAGYFGLFSYCVGNVLSSELICKGGPLDFSSIPSRAFKTAMFFVALGMFLIIGSIICFSLFFICNTATVYKICAWMQLAAATGLMIGCLVYPDGWDSSEVRRMCGEQTGKYTLGHCTIRWAFMLAILSIGDALILSFLAFVLGYRQDKLLPDDYKADGTEEV
partner: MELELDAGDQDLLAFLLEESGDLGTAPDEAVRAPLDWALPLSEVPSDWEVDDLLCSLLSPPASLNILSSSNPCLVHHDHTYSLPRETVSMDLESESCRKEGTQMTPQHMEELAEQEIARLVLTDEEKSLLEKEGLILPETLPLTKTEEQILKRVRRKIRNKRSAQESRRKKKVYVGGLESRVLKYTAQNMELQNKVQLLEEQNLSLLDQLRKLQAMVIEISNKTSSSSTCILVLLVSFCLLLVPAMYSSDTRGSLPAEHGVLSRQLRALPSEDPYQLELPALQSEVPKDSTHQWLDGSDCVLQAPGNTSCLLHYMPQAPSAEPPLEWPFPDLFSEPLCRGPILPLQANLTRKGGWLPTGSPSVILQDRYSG
B6: Zinc finger protein Aiolos (Homo sapiens), Q9UKT9 (parent)
chain: MEDIQTNAELKSTQEQSVPAESAAVLNDYSLTKSHEMENVDSGEGPANEDEDIGDDSMKVKDEYSERDENVLKSEPMGNAEEPEIPYSYSREYNEYENIKLERHVVSFDSSRPTSGKMNCDVCGLSCISFNVLMVHKRSHTGERPFQCNQCGASFTQKGNLLRHIKLHTGEKPFKCHLCNYACQRRDALTGHLRTHSVEKPYKCEFCGRSYKQRSSLEEHKERCRTFLQSTDPGDTASAEARHIKAEMGSERALVLDRLASNVAKRKSSMPQKFIGEKRHCFDVNYNSSYMYEKESELIQTRMMDQAINNAISYLGAEALRPLVQTPPAPTSEMVPVISSMYPIALTRAEMSNGAPQELEKKSIHLPEKSVPSERGLSPNNSGHDSTDTDSNHEERQNHIYQQNHMVLSRARNGMPLLKEVPRSYELLKPPPICPRDSVKVINKEGEVMDVYRCDHCRVLFLDYVMFTIHMGCHGFRDPFECNMCGYRSHDRYEFSSHIARGEHRALLK
partner: B2 chain
B7: cGMP-dependent protein kinase 1 (Homo sapiens), Q13976 (parent)
chain: MSELEEDFAKILMLKEERIKELEKRLSEKEEEIQELKRKLHKCQSVLPVPSTHIGPRTTRAQGISAEPQTYRSFHDLRQAFRKFTKSERSKDLIKEAILDNDFMKNLELSQIQEIVDCMYPVEYGKDSCIIKEGDVGSLVYVMEDGKVEVTKEGVKLCTMGPGKVFGELAILYNCTRTATVKTLVNVKLWAIDRQCFQTIMMRTGLIKHTEYMEFLKSVPTFQSLPEEILSKLADVLEETHYENGEYIIRQGARGDTFFIISKGTVNVTREDSPSEDPVFLRTLGKGDWFGEKALQGEDVRTANVIAAEAVTCLVIDRDSFKHLIGGLDDVSNKAYEDAEAKAKYEAEAAFFANLKLSDFNIIDTLGVGGFGRVELVQLKSEESKTFAMKILKKRHIVDTRQQEHIRSEKQIMQGAHSDFIVRLYRTFKDSKYLYMLMEACLGGELWTILRDRGSFEDSTTRFYTACVVEAFAYLHSKGIIYRDLKPENLILDHRGYAKLVDFGFAKKIGFGKKTWTFCGTPEYVAPEIILNKGHDISADYWSLGILMYELLTGSPPFSGPDPMKTYNIILRGIDMIEFPKKIAKNAANLIKKLCRDNPSERLGNLKNGVKDIQKHKWFEGFNWEGLRKGTLTPPIIPSVASPTDTSNFDSFPEDNDEPPPDDNSGWDIDF
B8: Mediator of RNA polymerase II transcription subunit 18 (Homo sapiens), Q9BUE0 (parent)
chain: MEAPPVTMMPVTGGTINMMEYLLQGSVLDHSLESLIHRLRGLCDNMEPETFLDHEMVFLLKGQQASPFVLRARRSMDRAGAPWHLRYLGQPEMGDKNRHALVRNCVDIATSENLTDFLMEMGFRMDHEFVAKGHLFRKGIMKIMVYKIFRILVPGNTDSTEALSLSYLVELSVVAPAGQDMVSDDMKNFAEQLKPLVHLEKIDPKRLM
partner: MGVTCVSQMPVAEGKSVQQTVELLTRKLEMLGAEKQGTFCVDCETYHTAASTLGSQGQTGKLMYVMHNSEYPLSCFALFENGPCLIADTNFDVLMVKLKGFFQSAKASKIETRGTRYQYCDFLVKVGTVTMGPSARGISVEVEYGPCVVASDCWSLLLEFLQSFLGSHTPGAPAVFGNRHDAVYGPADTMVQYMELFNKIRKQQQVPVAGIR
B9: MIF4G domain-containing protein (Homo sapiens), A9UHW6 (parent)
chain: MGEPSREEYKIQSFDAETQQLLKTALKDPGAVDLEKVANVIVDHSLQDCVFSKEAGRMCYAIIQAESKQAGQSVFRRGLLNRLQQEYQAREQLRARSLQGWVCYVTFICNIFDYLRVNNMPMMALVNPVYDCLFRLAQPDSLSKEEEVDCLVLQLHRVGEQLEKMNGQRMDELFVLIRDGFLLPTGLSSLAQLLLLEIIEFRAAGWKTTPAAHKYYYSEVSD
partner: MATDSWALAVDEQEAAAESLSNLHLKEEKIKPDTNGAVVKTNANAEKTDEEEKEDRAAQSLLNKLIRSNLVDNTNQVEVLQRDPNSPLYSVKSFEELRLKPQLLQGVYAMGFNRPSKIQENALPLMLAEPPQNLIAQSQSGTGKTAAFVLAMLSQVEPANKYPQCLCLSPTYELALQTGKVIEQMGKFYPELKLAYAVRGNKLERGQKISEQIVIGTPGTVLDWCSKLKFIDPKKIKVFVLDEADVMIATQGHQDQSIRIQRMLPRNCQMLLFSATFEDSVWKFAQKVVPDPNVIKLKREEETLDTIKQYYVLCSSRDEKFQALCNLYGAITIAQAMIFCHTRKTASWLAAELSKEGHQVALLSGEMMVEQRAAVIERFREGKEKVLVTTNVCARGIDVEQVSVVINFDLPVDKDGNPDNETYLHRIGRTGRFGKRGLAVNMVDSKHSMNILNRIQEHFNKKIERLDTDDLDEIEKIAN

Variants of: B1
Conditions: with rfx3_human RFX3, P48380

Variant	effect of a mutation on the interaction
N95K	with no effect

Variants of: B2
Conditions: with ca094_human C1orf94, Q6P1W5

Variant	effect of a mutation on the interaction
P142S	with no effect

Variants of: B3
Conditions: with traf4_human TRAF4, Q9BUZ4

Variant	effect of a mutation on the interaction
R121H	disrupting interaction strength

Variants of: B4
Conditions: with st2b1_human SULT2B1, O00204

Variant	effect of a mutation on the interaction
V223M	with no effect

Variants of: B5
Conditions: with creb3_human CREB3, O43889

Variant	effect of a mutation on the interaction
K205N	with no effect

Variants of: B6
Conditions: with cdn2d_human CDKN2D

Variant	effect of a mutation on the interaction
N119D	with no effect
A24V	with no effect

Variants of: B6
Conditions: with cdn2d_human CDKN2D
Remark: another data set of the same source

Variant	effect of a mutation on the interaction
I338M	with no effect

Variants of: B7
Conditions: with rbtn2_human LMO2, P25791
Chain of rbtn2_human LMO2, P25791 (P25791 whole entry): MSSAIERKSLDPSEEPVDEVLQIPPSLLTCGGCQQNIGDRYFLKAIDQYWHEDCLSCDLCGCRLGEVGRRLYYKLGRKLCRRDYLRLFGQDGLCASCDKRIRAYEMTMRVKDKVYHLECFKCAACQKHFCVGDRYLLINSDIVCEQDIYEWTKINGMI

Variant	effect of a mutation on the interaction
N267S	with no effect

Variants of: B7
Conditions: with zn646_human ZNF646, O15015
Chain of zn646_human ZNF646, O15015 (O15015 whole entry): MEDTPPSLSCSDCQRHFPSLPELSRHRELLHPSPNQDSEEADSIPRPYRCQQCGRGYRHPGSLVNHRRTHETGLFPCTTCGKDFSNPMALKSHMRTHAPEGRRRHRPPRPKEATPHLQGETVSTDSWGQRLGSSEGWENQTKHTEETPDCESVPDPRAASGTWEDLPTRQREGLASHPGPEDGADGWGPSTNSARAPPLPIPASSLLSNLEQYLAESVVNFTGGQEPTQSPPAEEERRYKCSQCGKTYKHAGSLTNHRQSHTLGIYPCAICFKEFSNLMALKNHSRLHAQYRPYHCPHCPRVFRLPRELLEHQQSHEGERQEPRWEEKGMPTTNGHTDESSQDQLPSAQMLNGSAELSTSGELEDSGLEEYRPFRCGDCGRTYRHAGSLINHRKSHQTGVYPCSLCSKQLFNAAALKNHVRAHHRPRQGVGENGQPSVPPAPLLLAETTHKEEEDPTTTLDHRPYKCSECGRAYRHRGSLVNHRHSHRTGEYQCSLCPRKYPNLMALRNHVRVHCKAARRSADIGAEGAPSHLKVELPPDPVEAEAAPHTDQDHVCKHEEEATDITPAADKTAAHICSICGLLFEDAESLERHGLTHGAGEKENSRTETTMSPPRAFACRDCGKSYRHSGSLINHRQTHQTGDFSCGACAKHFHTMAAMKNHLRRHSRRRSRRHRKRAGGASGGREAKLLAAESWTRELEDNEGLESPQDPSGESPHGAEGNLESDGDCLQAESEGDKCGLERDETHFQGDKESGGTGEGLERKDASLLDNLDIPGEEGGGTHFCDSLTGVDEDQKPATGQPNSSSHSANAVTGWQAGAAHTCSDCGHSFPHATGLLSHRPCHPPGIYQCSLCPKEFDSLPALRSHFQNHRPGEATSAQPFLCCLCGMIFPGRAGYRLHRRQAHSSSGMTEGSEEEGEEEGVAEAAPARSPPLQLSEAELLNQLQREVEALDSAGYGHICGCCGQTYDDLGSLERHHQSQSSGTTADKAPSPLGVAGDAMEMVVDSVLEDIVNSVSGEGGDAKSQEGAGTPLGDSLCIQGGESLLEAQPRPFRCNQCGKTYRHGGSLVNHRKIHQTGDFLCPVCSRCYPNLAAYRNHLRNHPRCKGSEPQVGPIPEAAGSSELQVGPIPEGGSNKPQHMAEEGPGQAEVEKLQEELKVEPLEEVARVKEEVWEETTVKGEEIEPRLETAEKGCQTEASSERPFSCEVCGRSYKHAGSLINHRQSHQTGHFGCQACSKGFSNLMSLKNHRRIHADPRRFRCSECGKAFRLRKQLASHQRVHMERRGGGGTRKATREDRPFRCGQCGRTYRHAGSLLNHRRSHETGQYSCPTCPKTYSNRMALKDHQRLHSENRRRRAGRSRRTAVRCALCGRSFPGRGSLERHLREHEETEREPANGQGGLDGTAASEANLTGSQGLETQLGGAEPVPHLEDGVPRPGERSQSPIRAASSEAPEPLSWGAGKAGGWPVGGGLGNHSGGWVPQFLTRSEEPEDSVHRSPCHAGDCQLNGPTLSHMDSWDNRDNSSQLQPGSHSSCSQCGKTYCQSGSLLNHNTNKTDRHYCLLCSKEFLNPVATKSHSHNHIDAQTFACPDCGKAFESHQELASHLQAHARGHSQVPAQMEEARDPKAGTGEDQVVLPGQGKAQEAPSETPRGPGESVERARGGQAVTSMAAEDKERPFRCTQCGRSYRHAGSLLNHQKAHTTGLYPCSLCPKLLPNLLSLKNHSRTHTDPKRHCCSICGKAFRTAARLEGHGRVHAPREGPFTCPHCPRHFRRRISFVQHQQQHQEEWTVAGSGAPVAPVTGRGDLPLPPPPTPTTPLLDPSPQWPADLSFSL

Variant	effect of a mutation on the interaction
N267S	with no effect

Variants of: B8
Conditions: with med20_human MED20, Q9H944

Variant	effect of a mutation on the interaction
M19V	with no effect

Variants of: B9
Conditions: with dd19b_human DDX19B

Variant	effect of a mutation on the interaction
E160K	with no effect
